Positions count from the first letter of the chain named.

The target of assay [1] is CD112 on MDA-MB-231-Luc-GFP and MDA-MB-231-CD155(-)-Luc-GFP cells (human) (UniProt Q92692). The assay is described as follows: flow cytometry of MDA-MB-231-Luc-GFP cells stained with the antibody, control incubated with PBS. In general terms: A flow cytometer gives signals particle by particle.
The target in assay [2] is T1, CD155 (labelled CD155 molecule / CD155 antigen of Example 2) (UniProt P15151).
T1 sequence (labelled for flow cytometry, label not stated, looked up): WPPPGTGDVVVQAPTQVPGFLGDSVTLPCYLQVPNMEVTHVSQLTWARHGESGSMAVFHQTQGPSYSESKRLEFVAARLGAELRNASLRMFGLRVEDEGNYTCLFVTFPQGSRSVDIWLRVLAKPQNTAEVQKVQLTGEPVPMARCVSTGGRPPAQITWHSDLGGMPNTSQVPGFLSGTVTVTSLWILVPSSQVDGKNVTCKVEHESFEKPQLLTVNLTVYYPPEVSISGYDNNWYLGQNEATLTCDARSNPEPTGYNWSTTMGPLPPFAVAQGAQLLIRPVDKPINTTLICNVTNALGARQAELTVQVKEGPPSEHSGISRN
Briefly: flow cytometry, labelled CD155 on CAR-CHO cells; MFI of CD155-positive cells / MFI of TIGIT-positive cells.

Assay [3] deals with CD112 (labelled CD112 molecule / CD112 antigen of Example 2) (UniProt Q92692). Briefly: flow cytometry, labelled CD112 on CAR-CHO cells; MFI of CD112-positive cells / MFI of TIGIT-positive cells.

“CD112 (Nectin2) Monoclonal Antibody (R2.525) PE”: the MFI, fold over the control group in assay [1] worked out at 4 fold.

B1: CAR6 (TIGIT mutant peptide Mut6-CD28TM-28Z) (receptor)
chain: MMTGTIETTGNISAEKGGSIILQCHLSSTTAQVTQVNWEQQDQLLAIWNADLGWHISPSFKDRVAPGPGLGLTLQSLTVNDTGEYFCIYHTYPDGTYTGRIFLEVLESSVAEHGARFQIPFWVLVVVGGVLACYSLLVTVAFIIFWVRSKRSRGGHSDYMNMTPRRPGPTRKHYQPYAPPRDFAAYRSRVKFSRSADAPAYKQGQNQLYNELNLGRREEYDVLDKRRGRDPEMGGKPRRKNPQEGLYNELQKDKMAEAYSEIGMKGERRRGKGHDGLYQGLSTATKDTYDALHMQALPPR
For B1, the relative MFI of CD155 (CD155/TIGIT) in assay [2] amounted to 1.34. Moreover, the relative MFI of CD112 (CD112/TIGIT) in assay [3] is 0.13.

B2: CAR30 (wild-type TIGIT polypeptide-CD28TM-28Z) (receptor)
chain: B1 chain with W48C
Regarding B2, the relative MFI of CD155 (CD155/TIGIT) in assay [2] was 1.03. In assay [3], this molecule gave a relative MFI of CD112 (CD112/TIGIT) of 0.16.
